Laboratory results published in patent publication US20250320305A1 (Hoffmann-La Roche, published 2025).

Tests used:
[1] = molecular target: T1, human CD40 expressed on cells (human, UniProt P25942 21-277); test: flow cytometry, primary human B cells
T1 construct: also called huCD40; Raji cells
Experimental: (§1) Plates were centrifuged 5 minutes at 1700 rpm and supernatants were flicked off. […] All samples were resuspended in 50 μL/well of 4° C. cold FACS buffer containing the bispecific antigen binding molecules (primary antibody) or the isotype control antibody DP47 at the indicated range of concentrations (in duplicates) and incubated for 120 minutes at 4° C. Afterwards the cells were washed three times with 200 μL 4° C. cold FACS buffer. […] Data analysis was performed using the FlowJo version 10 software (FlowJo LLC).

[2] = molecular target: T2, human Fibroblast Activation Protein (FAP) expressed on cells (human, UniProt Q12884 1-760); test: flow cytometry, NIH/3T3-huFAP cells
T2 construct: Cell-surface human FAP on transfected HEK or NIH/3T3 cells; also called huFAP; human FAP-transfected HEK cells
Experimental: as §1

[3] = molecular target: T3, His-tagged human FAP ectodomain (human, UniProt Q12884 27-760); test: SPR, His-tagged human FAP ectodomain as ligand
T3 construct: also called hu FAP ectodomain+poly-lys-tag+his6-tag; His-tagged FAP antigen

[4] = molecular target: T1, human CD40 expressed on cells; test: cell-based or functional assay
[5] = molecular target: T4, biotinylated recombinant human FAP (human, UniProt Q12884 26-760, biotinylated); test: SPR (Biacore), biotinylated huFAP on CAPture chip, Fab analyte
T4 construct: also called biotinylated human FAP
Experimental: As running and dilution buffer, HBS-P+ (10 mM HEPES, 150 mM NaCl pH 7.4, 0.05% Surfactant P20) was used. A dilution series of anti-huFAP Fabs (3.7-300 nM, 1:3 dilution) was successively injected for 120 s each, dissociation was monitored for 1800 s at a flow rate of 30 μl/min (single cycle kinetics). The surface was regenerated by injecting 6 M guanidine-HCl, 0.25 M NaOH for 120 s. Bulk refractive index differences were corrected by subtracting blank injections and by subtracting the response obtained from the control flow cell without captured human FAP. Curve fitting was performed using the 1:1 Langmuir binding model within the Biacore evaluation software.

[6] = molecular target: T4, biotinylated recombinant human FAP; test: SPR (Biacore), biotinylated recombinant human FAP
[7] = molecular target: biotinylated recombinant cynomolgus FAP (cynomolgus); test: SPR (Biacore), biotinylated recombinant cynomolgus FAP
[8] = molecular target: T2, human Fibroblast Activation Protein …; test: flow cytometry, huFAP-transfected HEK cells
Experimental: (§2) The binding of anti-FAP antibodies with a human IgG1 P329G LALA Fc to human FAP was determined by flow cytometry using human FAP-transfected HEK cells. Briefly, the target cells were harvested with Cell Dissociation buffer, washed with FACS Buffer (PBS+2% FCS+5 mM EDTA+0.25% sodium acide) and seeded into 96-U bottom plates (1×10^5 cells/well). Unlabeled primary antibodies were added to the cells (final concentrations 10 μg/ml to 0.64 ng/ml; 1:5 dilutions) and incubated for 30 min at 4° C. After washing, cells were incubated with a PE-conjugated AffiPure F(ab)₂ Fragment Goat anti-human IgG, Fc□ specific (Jackson Immunoresearch) for 30 min at 4° C. in the dark. Afterwards, cells were washed, fixed and measured using a BD FACS LSR Fortessa™.

[9] = molecular target: T2, human Fibroblast Activation Protein …; test: flow cytometry, human FAP-transfected HEK cells
Experimental: as §2

[10] = molecular target: T5, cynomolgus FAP expressed on cells (cynomolgus); test: flow cytometry, cells expressing cynomolgus FAP
T5 construct: whole, on cells

[11] = molecular target: T6, human DPP-IV expressed on transfected HEK cells (human, UniProt P27487 1-766); test: flow cytometry, human DPPIV-transfected HEK cells
T6 construct: whole, on cells; also called dipeptidyl peptidase IV
T6 sequence (P27487 whole entry): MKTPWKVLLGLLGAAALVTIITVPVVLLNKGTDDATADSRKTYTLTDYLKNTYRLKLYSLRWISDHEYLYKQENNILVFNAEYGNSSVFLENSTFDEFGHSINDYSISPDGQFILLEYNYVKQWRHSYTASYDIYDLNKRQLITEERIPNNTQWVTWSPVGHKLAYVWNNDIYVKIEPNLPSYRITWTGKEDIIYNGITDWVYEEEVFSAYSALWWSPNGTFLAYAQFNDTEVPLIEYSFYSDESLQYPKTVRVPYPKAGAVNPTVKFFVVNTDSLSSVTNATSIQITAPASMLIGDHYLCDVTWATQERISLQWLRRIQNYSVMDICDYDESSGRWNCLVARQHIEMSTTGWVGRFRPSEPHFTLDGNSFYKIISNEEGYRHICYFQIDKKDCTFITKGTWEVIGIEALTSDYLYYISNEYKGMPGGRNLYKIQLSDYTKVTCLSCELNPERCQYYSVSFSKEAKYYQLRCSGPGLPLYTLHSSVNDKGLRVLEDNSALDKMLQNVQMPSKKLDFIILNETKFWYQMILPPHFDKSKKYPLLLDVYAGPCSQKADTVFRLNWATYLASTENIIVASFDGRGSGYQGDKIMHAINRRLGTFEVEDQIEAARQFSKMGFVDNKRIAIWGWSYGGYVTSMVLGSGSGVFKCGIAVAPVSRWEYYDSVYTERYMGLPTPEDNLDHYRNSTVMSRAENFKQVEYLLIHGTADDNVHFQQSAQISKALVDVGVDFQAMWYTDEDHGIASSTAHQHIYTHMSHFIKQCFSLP
Experimental: Binding to human FAP and human DPP-IV was determined by flow cytometry using human FAP or human DPPIV-transfected HEK cells. Briefly, the target cells were harvested with Cell Dissociation buffer, washed with FACS Buffer (PBS+2% FCS+5 mM EDTA+0.25% sodium acide) and seeded into 96-U bottom plates (1×10⁵ cells/well). Unlabeled primary antibodies were added to the cells (final concentration 10 μg/ml) and incubated for 30 min at 4° C. After washing, cells were incubated with a goat anti-mouse IgG-PE F(ab′)₂ (Serotec) for 30 min at 4° C. in the dark. Afterwards, cells were washed, fixed and measured using a BD FACS Canto™ II.

B1: P1AE2423, CD40 (P1AE0817) x FAP (P1AE1689) (2+1) C-terminal crossfab fusion (bispecific antibody, human IgG1, kappa, L234A L235A)
light 1: QVQLVQSGAEVKKPGASVKVSCKASGYTLTDYNMDWVRQAPGQGLEWIGDIYPNTGGTIYNQKFKGRVTMTIDTSTSTVYMELSSLRSEDTAVYYCTRFRGIHYAMDYWGQGTTVTVSSASVAAPSVFIFPPSDEQLKSGTASVVCLLNNFYPREAKVQWKVDNALQSGNSQESVTEQDSKDSTYSLSSTLTLSKADYEKHKVYACEVTHQGLSSPVTKSFNRGEC
light 2: DIVMTQTPLSLSVTPGQPASISCRSSQSLVHSNGNTFLHWYLQKPGQSPQLLIYTVSNRFSGVPDRFSGSGSGTDFTLKISRVEAEDVGVYFCSQTTHVPWTFGGGTKVEIKRTVAAPSVFIFPPSDRKLKSGTASVVCLLNNFYPREAKVQWKVDNALQSGNSQESVTEQDSKDSTYSLSSTLTLSKADYEKHKVYACEVTHQGLSSPVTKSFNRGEC
heavy 1: not shown
heavy 2: QVQLVQSGAEVKKPGASVKVSCKASGYSFTGYYIHWVRQAPGQSLEWMGRVIPNAGGTSYNQKFKGRVTLTVDKSISTAYMELSRLRSDDTAVYYCAREGIYWWGQGTTVTVSSASTKGPSVFPLAPSSKSTSGGTAALGCLVEDYFPEPVTVSWNSGALTSGVHTFPAVLQSSGLYSLSSVVTVPSSSLGTQTYICNVNHKPSNTKVDEKVEPKSCDKTHTCPPCPAPEAAGGPSVFLFPPKPKDTLMISRTPEVTCVVVDVSHEDPEVKFNWYVDGVEVHNAKTKPREEQYNSTYRVVSVLTVLHQDWLNGKEYKCKVSNKALGAPIEKTISKAKGQPREPQVCTLPPSRDELTKNQVSLSCAVKGFYPSDIAVEWESNGQPENNYKTTPPVLDSDGSFFLVSKLTVDKSRWQQGNVFSCSVMHEALHNHYTQKSLSLSPG
notes: bivalent for CD40, monovalent for FAP; also called VL-CH1 fused to Fc
Q: What does the source list for B1?
A: EC50 [1]: 0.095 nM; EC50 [2]: 5.19 nM; Kd [3]: 0.094 nM; koff [3]: 3.2e-05 s⁻¹; kon [3]: 340000 M⁻¹ s⁻¹; EC50, two cell line bridging assay (SEAP of HEK-Blue CD40L reporter cells with FAP-expressing WM-266-4 cells) [4]: 0.0032 nM

B2: P1AD9438_Fab (clone 212 Fab) (Fab, V domains shown)
VH: EVLLQQSGPELVKPGASVKIACKASGYTLTDYNMDWVRQSHGKSLEWIGDIYPNTGGTIYNQKFKGKATLTIDKSSSTAYMDLRSLTSEDTAVYYCTRFRGIHYAMDYWGQGTSVTVSS
VL: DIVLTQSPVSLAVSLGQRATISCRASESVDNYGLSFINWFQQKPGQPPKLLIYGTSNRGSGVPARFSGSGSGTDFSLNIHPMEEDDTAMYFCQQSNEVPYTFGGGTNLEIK
notes: Fab
Q: For B2, which Kd [5] is on record?
A: < 0.01 nM

Q: And the koff [5]?
A: < 1e-06 s⁻¹

Q: And the kon [5]?
A: 1.06e+06 M⁻¹ s⁻¹

Q: And the Kd [6]?
A: 0.12 nM

B3: P1AD9438, anti-FAP clone 212 as huIgG1 P329G LALA (antibody, V domains shown)
VH: B2 VH
VL: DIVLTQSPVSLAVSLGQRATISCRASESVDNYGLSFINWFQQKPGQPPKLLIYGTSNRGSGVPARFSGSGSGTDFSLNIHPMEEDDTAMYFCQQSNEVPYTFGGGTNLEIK
Q: For B3, which Kd [7] is on record?
A: 0.14 nM

Q: What about the EC50 [8] of the same binder?
A: 0.118 µg/mL

Q: What about the EC50 [9] of the same binder?
A: 0.12 µg/mL

Q: What about the EC50 [10] of the same binder?
A: 0.3 µg/mL

B4: murine anti-human FAP antibody clone 212 (hybridoma-derived) (antibody, IgG1, V domains shown)
VH: B2 VH
VL: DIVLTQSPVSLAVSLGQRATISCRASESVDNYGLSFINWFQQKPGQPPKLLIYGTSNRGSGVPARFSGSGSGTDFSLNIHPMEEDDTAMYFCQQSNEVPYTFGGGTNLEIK
notes: mu IgG1
Q: Does B4 bind [11]?
A: no binding (tested: 10 µg/ml)
